Numbering of substitutions follows the chain as printed.
B1: Example 374 (peptide)
peptide: XXEGTFTSDYSIXLDKKAQXEFIEXLIAGGPSSGAPPPS
modifications: D-Tyr1, Aib2, αMeL13, K17 conjugated to (2-[2-(2-Amino-ethoxy)-ethoxy]-acetyl)2-(γ-Glu)-CO-(CH2)16-CO2H, Aib20, αMeY25, C-terminal amide (NH2)
B2: Example 380 (peptide)
peptide: B1 peptide with K16X, A28E
modifications: D-Tyr1, Aib2, αMeL13, Orn16, K17 conjugated to (2-[2-(2-Amino-ethoxy)-ethoxy]-acetyl)2-(γ-Glu)-CO-(CH2)18-CO2H, Aib20, αMeY25, C-terminal amide (NH2)
B3: Example 379 (peptide)
peptide: B1 peptide with A28E
modifications: D-Tyr1, Aib2, αMeL13, K17 conjugated to (2-[2-(2-Amino-ethoxy)-ethoxy]-acetyl)2-(γ-Glu)-CO-(CH2)18-CO2H, Aib20, αMeY25, C-terminal amide (NH2)
B4: Example 377 (peptide)
peptide: B1 peptide with K16X, E21A
modifications: D-Tyr1, Aib2, αMeL13, Orn16, K17 conjugated to (2-[2-(2-Amino-ethoxy)-ethoxy]-acetyl)2-(γ-Glu)-CO-(CH2)16-CO2H, Aib20, αMeY25, C-terminal amide (NH2)
B5: Example 381 (peptide)
peptide: B1 peptide with K16E, E21A
modifications: D-Tyr1, Aib2, αMeL13, K17 conjugated to (2-[2-(2-Amino-ethoxy)-ethoxy]-acetyl)2-(γ-Glu)-CO-(CH2)18-CO2H, Aib20, αMeY25, C-terminal amide (NH2)
B6: Example 378 (peptide)
peptide: B1 peptide with X25Y
modifications: D-Tyr1, Aib2, αMeL13, K17 conjugated to (2-[2-(2-Amino-ethoxy)-ethoxy]-acetyl)-(γ-Glu)-CO-(CH2)18-CO2H, Aib20, C-terminal amide (NH2)
B7: Example 375 (peptide)
peptide: B1 peptide with K16X
modifications: D-Tyr1, Aib2, αMeL13, Orn16, K17 conjugated to (2-[2-(2-Amino-ethoxy)-ethoxy]-acetyl)2-(γ-Glu)-CO-(CH2)16-CO2H, Aib20, αMeY25, C-terminal amide (NH2)
B8: Example 376 (peptide)
peptide: B1 peptide with E21A
modifications: D-Tyr1, Aib2, αMeL13, K17 conjugated to (2-[2-(2-Amino-ethoxy)-ethoxy]-acetyl)2-(γ-Glu)-CO-(CH2)16-CO2H, Aib20, αMeY25, C-terminal amide (NH2)
B9: Example 370 (peptide)
peptide: XXEGTFTSDYSIXLDXKAQXEFIEYLIAGGPSSG
modifications: D-Tyr1; Aib2; αMeL13; Orn16; K17 conjugated to (2-[2-(2-Amino-ethoxy)-ethoxy]-acetyl)2-(γ-Glu)-CO-(CH2)18-CO2H; Aib20; C-terminal amide
B10: Example 367 (peptide)
peptide: B1 peptide with X1Y
modifications: Aib2; αMeL13; K17 conjugated to (2-[2-(2-Amino-ethoxy)-ethoxy]-acetyl)2-(γ-Glu)-CO-(CH2)18-CO2H; Aib20; αMeY25; C-terminal amide
B11: Example 372 (peptide)
peptide: B1 peptide
modifications: D-Tyr1; Aib2; αMeL13; K17 conjugated to (2-[2-(2-Amino-ethoxy)-ethoxy]-acetyl)-(γ-Glu)-CO-(CH2)18-CO2H; Aib20; αMeY25; C-terminal amide
B12: Example 374 (peptide)
peptide: B1 peptide
modifications: D-Tyr1; Aib2; αMeL13; K17 conjugated to (2-[2-(2-Amino-ethoxy)-ethoxy]-acetyl)2-(γ-Glu)-CO-(CH2)16-CO2H; Aib20; αMeY25; C-terminal amide
B13: Example 371 (peptide)
peptide: B1 peptide with K16X, X25Y
modifications: D-Tyr1; Aib2; αMeL13; Orn16; K17 conjugated to (2-[2-(2-Amino-ethoxy)-ethoxy]-acetyl)-(γ-Glu)-CO-(CH2)18-CO2H; Aib20; C-terminal amide
B14: Example 380 (peptide)
peptide: B1 peptide with K16X, A28E
modifications: D-Tyr1; Aib2; αMeL13; Orn16; K17 conjugated to (2-[2-(2-Amino-ethoxy)-ethoxy]-acetyl)2-(γ-Glu)-CO-(CH2)18-CO2H; Aib20; αMeY25; C-terminal amide
B15: Example 363 (peptide)
peptide: B1 peptide with K16X, E21A, E24X, X25Y
modifications: D-Tyr1; Aib2; αMeL13; Orn16; K17 conjugated to (2-[2-(2-Amino-ethoxy)-ethoxy]-acetyl)2-(γ-Glu)-CO-(CH2)16-CO2H; Aib20; D-Glu24; C-terminal amide
B16: Example 368 (peptide)
peptide: B1 peptide with K16X, X25Y
modifications: D-Tyr1; Aib2; αMeL13; Orn16; K17 conjugated to (2-[2-(2-Amino-ethoxy)-ethoxy]-acetyl)2-(γ-Glu)-CO-(CH2)16-CO2H; Aib20; C-terminal amide
B17: Example 360 (peptide)
peptide: XXEGTFTSDYSIXLDXKAQXAFVEYLIEGGPSSGAPPPS
modifications: D-Tyr1; Aib2; αMeL13; Orn16; K17 conjugated to (2-[2-(2-Amino-ethoxy)-ethoxy]-acetyl)2-(γ-Glu)-CO-(CH2)18-CO2H; Aib20; C-terminal amide

target: human GLP-1 receptor (human, UniProt P43220 24-463); experiment: cell-based or functional assay

Compared with B1, B2 is lower in “hGLP1R GTPgS % Top” value: 67.1% for the first, 66.8% for the second.

Going from B3 to B4, the “hGLP1R GTPgS % Top” value falls from 71% to 68.4%.

Compared with B5, B6 is lower in “hGLP1R GTPgS % Top” value: 73.6% for the first, 68.6% for the second.

Compared with B7, B8 is higher in “hGLP1R GTPgS % Top” value: 70.4% for the first, 72.6% for the second.

First: B1
Second: B2
The “hGLP1R GTPgS Rel EC50” value of the first is 1.8-fold higher: 0.345 nM for the first, 0.188 nM for the second.

B3 and B4 are within 1.5-fold of each other in “hGLP1R GTPgS Rel EC50” value: 0.239 nM for the first, 0.356 nM for the second.

B5 and B6 are within 1.5-fold of each other in “hGLP1R GTPgS Rel EC50” value: 0.273 nM for the first, 0.359 nM for the second.

B7 and B8 are within 1.5-fold of each other in “hGLP1R GTPgS Rel EC50” value: 0.419 nM for the first, 0.326 nM for the second.

target: Pro-Link-tagged Human GLP-1R (human, UniProt P43220 24-463); experiment: cell-based or functional assay

Compared with B1, B2 is higher in “hGLP1R B-Arrestin2 % Top” value: 34.7% for the first, 35% for the second.

Compared with B3, B4 is lower in “hGLP1R B-Arrestin2 % Top” value: 31.9% for the first, 16.7% for the second.

Compared with B5, B7 is lower in “hGLP1R B-Arrestin2 % Top” value: 25.8% for the first, 24.2% for the second.

With B8 the “hGLP1R B-Arrestin2 % Top” value was 25.6%.

Going from B1 to B2, the “hGLP1R B-Arrestin2 Rel EC50” value falls from 21.8 nM to 13.7 nM (1.6-fold).

Going from B3 to B4, the “hGLP1R B-Arrestin2 Rel EC50” value falls from 18.1 nM to 5.32 nM (3.4-fold).

First: B5
Second: B6
The “hGLP1R B-Arrestin2 Rel EC50” value of the first is lower: 15.5 nM for the first, greater than 10200 nM for the second.

B7 and B8 are within 1.5-fold of each other in “hGLP1R B-Arrestin2 Rel EC50” value: 11.4 nM for the first, 12.3 nM for the second.

target: human GLP-1 receptor (GLP-1R) (human, UniProt P43220 24-463); experiment: cell-based or functional assay

First: B9
Second: B10
The “hGLP1R cAMP EC50 ratio” value of the first is lower: 0.172 ratio for the first, 0.386 ratio for the second.

Compared with B11, B12 is higher in “hGLP1R cAMP EC50 ratio” value: 0.0741 ratio for the first, 0.169 ratio for the second.

Compared with B13, B14 is lower in “hGLP1R cAMP EC50 ratio” value: 0.206 ratio for the first, 0.115 ratio for the second.

First: B15
Second: B16
The “hGLP1R cAMP EC50 ratio” value of the first is lower: 0.146 ratio for the first, 0.299 ratio for the second.

With B17 the “hGLP1R cAMP EC50 ratio” value was 0.171 ratio.

First: B9
Second: B10
The “hGLP1R cAMP Rel EC50” value of the first is 2.9-fold higher: 0.186 nM for the first, 0.0641 nM for the second.

Compared with B11, B12 is 1.9-fold lower in “hGLP1R cAMP Rel EC50” value: 0.365 nM for the first, 0.19 nM for the second.

Going from B13 to B14, the “hGLP1R cAMP Rel EC50” value rises from 0.132 nM to 0.236 nM (1.8-fold).

Going from B15 to B16, the “hGLP1R cAMP Rel EC50” value falls from 0.208 nM to 0.108 nM (1.9-fold).

In the case of B17, the “hGLP1R cAMP Rel EC50” value is reported as 0.145 nM.

target: T1, human gastric inhibitory peptide receptor (GIPR) (human, UniProt P48546 22-466); experiment: cell-based or functional assay
T1 sequence (looked up): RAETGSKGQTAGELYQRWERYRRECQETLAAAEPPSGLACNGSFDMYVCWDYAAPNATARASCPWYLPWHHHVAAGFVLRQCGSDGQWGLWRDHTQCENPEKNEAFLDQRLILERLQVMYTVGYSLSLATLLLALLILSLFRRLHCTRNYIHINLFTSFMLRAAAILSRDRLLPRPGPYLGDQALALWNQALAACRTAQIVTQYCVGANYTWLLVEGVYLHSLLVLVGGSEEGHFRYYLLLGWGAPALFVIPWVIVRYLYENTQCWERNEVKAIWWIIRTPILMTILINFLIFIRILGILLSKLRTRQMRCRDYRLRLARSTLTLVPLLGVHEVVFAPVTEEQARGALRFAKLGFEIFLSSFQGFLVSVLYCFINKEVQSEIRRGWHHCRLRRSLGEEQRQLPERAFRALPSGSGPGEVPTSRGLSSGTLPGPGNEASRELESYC

Compared with B9, B10 is higher in “hGIPR cAMP EC50 ratio” value: 0.704 ratio for the first, 5.85 ratio for the second.

Going from B11 to B12, the “hGIPR cAMP EC50 ratio” value rises from 0.68 ratio to 1.76 ratio.

Compared with B13, B14 is lower in “hGIPR cAMP EC50 ratio” value: 0.393 ratio for the first, 0.374 ratio for the second.

Going from B15 to B16, the “hGIPR cAMP EC50 ratio” value falls from 0.835 ratio to 0.109 ratio.

B17 was tested, and the “hGIPR cAMP EC50 ratio” value was 0.53 ratio.

First: B9
Second: B10
The “hGIPR cAMP Rel EC50” value of the first is 6.5-fold higher: 0.117 nM for the first, 0.0179 nM for the second.

Compared with B11, B12 is 1.7-fold lower in “hGIPR cAMP Rel EC50” value: 0.0781 nM for the first, 0.0468 nM for the second.

B13 and B14 are within 1.5-fold of each other in “hGIPR cAMP Rel EC50” value: 0.135 nM for the first, 0.142 nM for the second.

Going from B15 to B16, the “hGIPR cAMP Rel EC50” value falls from 0.145 nM to 0.0757 nM (1.9-fold).

B17 was tested, and the “hGIPR cAMP Rel EC50” value was 0.197 nM.

— US20220048967A1 (published 2022)
